These binders were tested against T1, soluble human CD40 extracellular domain (human, UniProt P25942 21-193) (assay: SPR, Ab captured from supernatant on protein A, hCD40 ECD analyte).
T1 construct: Produced in house; also called hCD40; soluble hCD40 extracellular domain
Procedure: The titer data (Table 21) were used to normalize the antibody concentration in each supernatant to 3 μg/ml, and these antibodies were captured out of the supernatants on a protein A CMS Series S sensor chip (GE Healthcare), and tested for binding to two concentrations (5 nM and 50 nM) of soluble hCD40 extracellular domain.
CD40 binding SPR of antibody supernatants: Surface plasmon resonance (SPR) studies were conducted on a BIAcore™ T200 instrument (GE Healthcare, Chicago Ill.). A Series S Protein A sensor chip (GE Healthcare, Chicago Ill.) was equilibrated with SPR running buffer of 10 mM NaPO₄, 130 mM NaCl, 0.05% tween 20, (PBS-T) pH 7.2 at 25° C. The 96 antibody supernatants were normalized to a concentration of 3 μg/ml by diluting with PBS-T using a PerkinElmer JANUS® G3 system (PerkinElmer, Akron, Ohio). After priming the system, the 3 μg/ml antibody samples were captured on the protein A surface for 30 s at 10 μl/min Binding of 50 nM and 500 nM human CD40 extracellular domain (produced in house) was evaluated using association time of 180 s at 30 μl/min, followed by a dissociation time of 180 s at 30 μl/min Regeneration between cycles was accomplished using two 15 s injections of 10 mM glycine pH 1.5. […] Data were analyzed using BIAcore™ T200 evaluation software by fitting to a 1:1 Langmuir model.

T1 sequence (P25942 21-193 limits assumed): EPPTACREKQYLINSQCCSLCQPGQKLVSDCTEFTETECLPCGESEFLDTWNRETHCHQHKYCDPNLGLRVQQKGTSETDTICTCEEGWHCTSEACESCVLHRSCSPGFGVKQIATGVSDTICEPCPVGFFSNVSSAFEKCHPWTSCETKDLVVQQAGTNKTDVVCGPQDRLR

| Binder | Kd [nM] |
| --- | --- |
| M17 (HC-wt / LC-K45Q) (antibody, human IgG1, kappa, IgG1-P238K; also called HC1/LC2) heavy: not shown light: DIQMTQSPSFLSASVGDRVTITCKASQDVSTAVAWYQQKPGKAPQLLIYSASYRYTGVPSRFSGSGSGTDFTLTISSLQPEDFATYYCQQHYSTPWTFGGGTKVEIKRTVAAPSVFIFPPSDEQLKSGTASVVCLLNNFYPREAKVQWKVDNALQSGNSQESVTEQDSKDSTYSLSSTLTLSKADYEKHKVYACEVTHQGLSSPVTKSFNRGEC | 4.1 |
| M25 (HC-K63Q,R67E / LC-K45Q) (antibody, human IgG1, kappa, V domains shown, IgG1-P238K; also called HC9/LC2) VH: QVQLVQSGAEVKKPGSSVKVSCKASGYAFTSYWMHWVRQAPGQGLEWMGQINPTTGRSQYNEQFKTEVTITADKSTSTAYMELSSLRSEDTAVYYCARWGLQPFAYWGQGTLVTVSS VL: DIQMTQSPSFLSASVGDRVTITCKASQDVSTAVAWYQQKPGKAPQLLIYSASYRYTGVPSRFSGSGSGTDFTLTISSLQPEDFATYYCQQHYSTPWTFGGGTKVEIKR | 3.1 |
| M18 (HC-K12Q,K13Q / LC-K45Q) (antibody, human IgG1, kappa, IgG1-P238K; also called HC2/LC2) heavy: not shown light: DIQMTQSPSFLSASVGDRVTITCKASQDVSTAVAWYQQKPGKAPQLLIYSASYRYTGVPSRFSGSGSGTDFTLTISSLQPEDFATYYCQQHYSTPWTFGGGTKVEIKRTVAAPSVFIFPPSDEQLKSGTASVVCLLNNFYPREAKVQWKVDNALQSGNSQESVTEQDSKDSTYSLSSTLTLSKADYEKHKVYACEVTHQGLSSPVTKSFNRGEC | 3.4 |
| M24 (HC-R38Q,K63Q,R67Q / LC-K45Q) (antibody, human IgG1, kappa, V domains shown, IgG1-P238K; also called HC8/LC2) VH: QVQLVQSGAEVKKPGSSVKVSCKASGYAFTSYWMHWVQQAPGQGLEWMGQINPTTGRSQYNEQFKTQVTITADKSTSTAYMELSSLRSEDTAVYYCARWGLQPFAYWGQGTLVTVSS VL: DIQMTQSPSFLSASVGDRVTITCKASQDVSTAVAWYQQKPGKAPQLLIYSASYRYTGVPSRFSGSGSGTDFTLTISSLQPEDFATYYCQQHYSTPWTFGGGTKVEIKR | 2.9 |
| M2 (HC-K12Q,K13Q / LC-wt) (antibody, human IgG1, kappa, IgG1-P238K; also called HC2/LC1) heavy: not shown light: DIQMTQSPSFLSASVGDRVTITCKASQDVSTAVAWYQQKPGKAPKLLIYSASYRYTGVPSRFSGSGSGTDFTLTISSLQPEDFATYYCQQHYSTPWTFGGGTKVEIKRTVAAPSVFIFPPSDEQLKSGTASVVCLLNNFYPREAKVQWKVDNALQSGNSQESVTEQDSKDSTYSLSSTLTLSKADYEKHKVYACEVTHQGLSSPVTKSFNRGEC | 3.7 |
| M3 (HC-K12Q,K13Q,K23Q / LC-wt) (antibody, human IgG1, kappa, IgG1-P238K; also called HC3/LC1) heavy: not shown light: DIQMTQSPSFLSASVGDRVTITCKASQDVSTAVAWYQQKPGKAPKLLIYSASYRYTGVPSRFSGSGSGTDFTLTISSLQPEDFATYYCQQHYSTPWTFGGGTKVEIKRTVAAPSVFIFPPSDEQLKSGTASVVCLLNNFYPREAKVQWKVDNALQSGNSQESVTEQDSKDSTYSLSSTLTLSKADYEKHKVYACEVTHQGLSSPVTKSFNRGEC | 3.7 |
| M16 (HC-K63Q / LC-wt) (antibody, human IgG1, kappa, IgG1-P238K; also called HC16/LC1) heavy: not shown light: DIQMTQSPSFLSASVGDRVTITCKASQDVSTAVAWYQQKPGKAPKLLIYSASYRYTGVPSRFSGSGSGTDFTLTISSLQPEDFATYYCQQHYSTPWTFGGGTKVEIKRTVAAPSVFIFPPSDEQLKSGTASVVCLLNNFYPREAKVQWKVDNALQSGNSQESVTEQDSKDSTYSLSSTLTLSKADYEKHKVYACEVTHQGLSSPVTKSFNRGEC | 4.1 |
| M7 (HC-K23E / LC-wt) (antibody, human IgG1, kappa, IgG1-P238K; also called HC7/LC1) heavy: not shown light: DIQMTQSPSFLSASVGDRVTITCKASQDVSTAVAWYQQKPGKAPKLLIYSASYRYTGVPSRFSGSGSGTDFTLTISSLQPEDFATYYCQQHYSTPWTFGGGTKVEIKRTVAAPSVFIFPPSDEQLKSGTASVVCLLNNFYPREAKVQWKVDNALQSGNSQESVTEQDSKDSTYSLSSTLTLSKADYEKHKVYACEVTHQGLSSPVTKSFNRGEC | 4.5 |
| M20 (HC-K12E / LC-K45Q) (antibody, human IgG1, kappa, IgG1-P238K; also called HC4/LC2) heavy: not shown light: DIQMTQSPSFLSASVGDRVTITCKASQDVSTAVAWYQQKPGKAPQLLIYSASYRYTGVPSRFSGSGSGTDFTLTISSLQPEDFATYYCQQHYSTPWTFGGGTKVEIKRTVAAPSVFIFPPSDEQLKSGTASVVCLLNNFYPREAKVQWKVDNALQSGNSQESVTEQDSKDSTYSLSSTLTLSKADYEKHKVYACEVTHQGLSSPVTKSFNRGEC | 3.3 |
| M19 (HC-K12Q,K13Q,K23Q / LC-K45Q) (antibody, human IgG1, kappa, V domains shown, IgG1-P238K; also called HC3/LC2) VH: QVQLVQSGAEVQQPGSSVKVSCQASGYAFTSYWMHWVRQAPGQGLEWMGQINPTTGRSQYNEKFKTRVTITADKSTSTAYMELSSLRSEDTAVYYCARWGLQPFAYWGQGTLVTVSS VL: DIQMTQSPSFLSASVGDRVTITCKASQDVSTAVAWYQQKPGKAPQLLIYSASYRYTGVPSRFSGSGSGTDFTLTISSLQPEDFATYYCQQHYSTPWTFGGGTKVEIKR | 3.8 |
| M14 (HC-K74T / LC-wt) (antibody, human IgG1, kappa, IgG1-P238K; also called HC14/LC1) heavy: not shown light: DIQMTQSPSFLSASVGDRVTITCKASQDVSTAVAWYQQKPGKAPKLLIYSASYRYTGVPSRFSGSGSGTDFTLTISSLQPEDFATYYCQQHYSTPWTFGGGTKVEIKRTVAAPSVFIFPPSDEQLKSGTASVVCLLNNFYPREAKVQWKVDNALQSGNSQESVTEQDSKDSTYSLSSTLTLSKADYEKHKVYACEVTHQGLSSPVTKSFNRGEC | 4 |
| M22 (HC-K12V,K19S,K23A / LC-K45Q) (antibody, human IgG1, kappa, V domains shown, IgG1-P238K; also called HC6/LC2) VH: QVQLVQSGAEVVKPGSSVSVSCAASGYAFTSYWMHWVRQAPGQGLEWMGQINPTTGRSQYNEKFKTRVTITADKSTSTAYMELSSLRSEDTAVYYCARWGLQPFAYWGQGTLVTVSS VL: DIQMTQSPSFLSASVGDRVTITCKASQDVSTAVAWYQQKPGKAPQLLIYSASYRYTGVPSRFSGSGSGTDFTLTISSLQPEDFATYYCQQHYSTPWTFGGGTKVEIKR | 3.5 |
| M23 (HC-K23E / LC-K45Q) (antibody, human IgG1, kappa, IgG1-P238K; also called HC7/LC2) heavy: not shown light: DIQMTQSPSFLSASVGDRVTITCKASQDVSTAVAWYQQKPGKAPQLLIYSASYRYTGVPSRFSGSGSGTDFTLTISSLQPEDFATYYCQQHYSTPWTFGGGTKVEIKRTVAAPSVFIFPPSDEQLKSGTASVVCLLNNFYPREAKVQWKVDNALQSGNSQESVTEQDSKDSTYSLSSTLTLSKADYEKHKVYACEVTHQGLSSPVTKSFNRGEC | 4.1 |
| M8 (HC-R38Q,K63Q,R67Q / LC-wt) (antibody, human IgG1, kappa, IgG1-P238K; also called HC8/LC1) heavy: not shown light: DIQMTQSPSFLSASVGDRVTITCKASQDVSTAVAWYQQKPGKAPKLLIYSASYRYTGVPSRFSGSGSGTDFTLTISSLQPEDFATYYCQQHYSTPWTFGGGTKVEIKRTVAAPSVFIFPPSDEQLKSGTASVVCLLNNFYPREAKVQWKVDNALQSGNSQESVTEQDSKDSTYSLSSTLTLSKADYEKHKVYACEVTHQGLSSPVTKSFNRGEC | 3.4 |
| M15 (HC-R67Q / LC-wt) (antibody, human IgG1, kappa, IgG1-P238K; also called HC15/LC1) heavy: not shown light: DIQMTQSPSFLSASVGDRVTITCKASQDVSTAVAWYQQKPGKAPKLLIYSASYRYTGVPSRFSGSGSGTDFTLTISSLQPEDFATYYCQQHYSTPWTFGGGTKVEIKRTVAAPSVFIFPPSDEQLKSGTASVVCLLNNFYPREAKVQWKVDNALQSGNSQESVTEQDSKDSTYSLSSTLTLSKADYEKHKVYACEVTHQGLSSPVTKSFNRGEC | 3.4 |
| M5 (HC-K12E,K13Q,K23E / LC-wt) (antibody, human IgG1, kappa, IgG1-P238K; also called HC5/LC1) heavy: not shown light: DIQMTQSPSFLSASVGDRVTITCKASQDVSTAVAWYQQKPGKAPKLLIYSASYRYTGVPSRFSGSGSGTDFTLTISSLQPEDFATYYCQQHYSTPWTFGGGTKVEIKRTVAAPSVFIFPPSDEQLKSGTASVVCLLNNFYPREAKVQWKVDNALQSGNSQESVTEQDSKDSTYSLSSTLTLSKADYEKHKVYACEVTHQGLSSPVTKSFNRGEC | 3.8 |
| M11 (HC-R57E / LC-wt) (antibody, human IgG1, kappa, IgG1-P238K; also called HC11/LC1) heavy: not shown light: DIQMTQSPSFLSASVGDRVTITCKASQDVSTAVAWYQQKPGKAPKLLIYSASYRYTGVPSRFSGSGSGTDFTLTISSLQPEDFATYYCQQHYSTPWTFGGGTKVEIKRTVAAPSVFIFPPSDEQLKSGTASVVCLLNNFYPREAKVQWKVDNALQSGNSQESVTEQDSKDSTYSLSSTLTLSKADYEKHKVYACEVTHQGLSSPVTKSFNRGEC | 10.2 |
| M9 (HC-K63Q,R67E / LC-wt) (antibody, human IgG1, kappa, IgG1-P238K; also called HC9/LC1) heavy: not shown light: DIQMTQSPSFLSASVGDRVTITCKASQDVSTAVAWYQQKPGKAPKLLIYSASYRYTGVPSRFSGSGSGTDFTLTISSLQPEDFATYYCQQHYSTPWTFGGGTKVEIKRTVAAPSVFIFPPSDEQLKSGTASVVCLLNNFYPREAKVQWKVDNALQSGNSQESVTEQDSKDSTYSLSSTLTLSKADYEKHKVYACEVTHQGLSSPVTKSFNRGEC | 3.2 |
| M6 (HC-K12V,K19S,K23A / LC-wt) (antibody, human IgG1, kappa, IgG1-P238K; also called HC6/LC1) heavy: not shown light: DIQMTQSPSFLSASVGDRVTITCKASQDVSTAVAWYQQKPGKAPKLLIYSASYRYTGVPSRFSGSGSGTDFTLTISSLQPEDFATYYCQQHYSTPWTFGGGTKVEIKRTVAAPSVFIFPPSDEQLKSGTASVVCLLNNFYPREAKVQWKVDNALQSGNSQESVTEQDSKDSTYSLSSTLTLSKADYEKHKVYACEVTHQGLSSPVTKSFNRGEC | 3.8 |
| M21 (HC-K12E,K13Q,K23E / LC-K45Q) (antibody, human IgG1, kappa, IgG1-P238K; also called HC5/LC2) heavy: not shown light: DIQMTQSPSFLSASVGDRVTITCKASQDVSTAVAWYQQKPGKAPQLLIYSASYRYTGVPSRFSGSGSGTDFTLTISSLQPEDFATYYCQQHYSTPWTFGGGTKVEIKRTVAAPSVFIFPPSDEQLKSGTASVVCLLNNFYPREAKVQWKVDNALQSGNSQESVTEQDSKDSTYSLSSTLTLSKADYEKHKVYACEVTHQGLSSPVTKSFNRGEC | 3.7 |
| M12 (HC-R57E,K74Q / LC-wt) (antibody, human IgG1, kappa, IgG1-P238K; also called HC12/LC1) heavy: not shown light: DIQMTQSPSFLSASVGDRVTITCKASQDVSTAVAWYQQKPGKAPKLLIYSASYRYTGVPSRFSGSGSGTDFTLTISSLQPEDFATYYCQQHYSTPWTFGGGTKVEIKRTVAAPSVFIFPPSDEQLKSGTASVVCLLNNFYPREAKVQWKVDNALQSGNSQESVTEQDSKDSTYSLSSTLTLSKADYEKHKVYACEVTHQGLSSPVTKSFNRGEC | 14 |
